Source: article PMC11867022

Test system: S9.6 antibody (anti-DNA-RNA hybrid) (mouse)
Assay: SPR
Conditions: single-cycle kinetics, pH 7.0, SPR: 10 mM HEPES pH 7.0, 15 mM MgCl2, 80 mM NaCl, S9.6 on CM5 chip, EMSA: 200 nM nucleic acid, 80 ug/mL S9.6, 30 min room temperature, 6% PAGE in 0.5X TBE

Row | Sequence | Kd [nM] | Kd (ka 5.99e5 1/Ms, kd 1.74e-4 1/s) [nM]
1 | AAGAAAAGAGAAGAAGAGAACACCTTCTCTTCTTCTCTTTTCTTAGACCCCTATCACGATTAGCATTAA / UUAAUGCUAAUCGUGAUAGGGGU [Switch B (70% TAT)/miR-155 hybrid] | 0.144 | –
2 | AGTGAATTCTACCAGTGCCATAGAGGAGAGGAGAGGAGGGGAGGTTTACCTCCCCTCCTCTCCTCTCCCTTTGCCTCTCCTCTCCTCCCCTCCGT / UAUGGCACUGGUAGAAUUCACU [Switch A (30% TAT)/miR-183 hybrid] | – | 0.291
